The values below come from publication PMC6116569, “Activity of Vsr endonucleases encoded by Neisseria gonorrhoeae FA1090 is influenced by MutL and MutS proteins” (BMC Microbiology, 2018).

In series [1] the test system is MutS (Neisseria gonorrhoeae FA1090). The experiment in a line: EMSA. Conditions: 0.75 uM protein, 1 mM ATP, 10 mM Ca2+, 10 mM Tris-HCl pH 7.5, 10 mM CaCl2, 0.1 mg/ml BSA, 0.15 uM substrate DNA, 0.032 uM competitor DNA, 20 ul, temperature not stated, 5% PAGE with ….
In series [2] the target is V.NgoAXIII endonuclease, two-hybrid fusion (ngoAXIIIV gene in pC22, plasmid pAK24) (N. gonorrhoeae FA1090). In words: two-hybrid; bacterial two-hybrid system (Di Lallo et al.) in E. coli R721 with lacZ as reporter: fusions to the N-terminal domains of the phage P22 and 434 repressors; an interaction represses β-galactosidase; LB with 0.1 mM IPTG, 37 °C; read-out is the ratio of Miller Units to the plasmid-less strain, a ratio below 0.5 counts as interaction.

The target in series [3] is V.NgoAXIV endonuclease, two-hybrid fusion (ngoAXIVV gene in pC22, plasmid pAK25) (N. gonorrhoeae FA1090). The description is as above.
In series [4] the target is T1, MutS protein of N. gonorrhoeae FA1090, His-tagged, purified (plasmid pAK21) (N. gonorrhoeae FA1090, UniProt Q5F5J4 1-864).
T1 construct: MutS of Neisseria gonorrhoeae FA1090; mutS gene (2595 bp) amplified from chromosomal DNA with primers MutSNheI/MutSNgoR and cloned into the NheI-HindIII sites of pET28a(+); The His-Tag at the amino terminus is encoded by the vector; also called gonococcal MutS protein; source: E. coli BL21(DE3)pLys (pAK21), autoinduction, purified (Ni-NTA Agarose); not shown: His-Tag, N-terminal, kept
T1 sequence (looked up): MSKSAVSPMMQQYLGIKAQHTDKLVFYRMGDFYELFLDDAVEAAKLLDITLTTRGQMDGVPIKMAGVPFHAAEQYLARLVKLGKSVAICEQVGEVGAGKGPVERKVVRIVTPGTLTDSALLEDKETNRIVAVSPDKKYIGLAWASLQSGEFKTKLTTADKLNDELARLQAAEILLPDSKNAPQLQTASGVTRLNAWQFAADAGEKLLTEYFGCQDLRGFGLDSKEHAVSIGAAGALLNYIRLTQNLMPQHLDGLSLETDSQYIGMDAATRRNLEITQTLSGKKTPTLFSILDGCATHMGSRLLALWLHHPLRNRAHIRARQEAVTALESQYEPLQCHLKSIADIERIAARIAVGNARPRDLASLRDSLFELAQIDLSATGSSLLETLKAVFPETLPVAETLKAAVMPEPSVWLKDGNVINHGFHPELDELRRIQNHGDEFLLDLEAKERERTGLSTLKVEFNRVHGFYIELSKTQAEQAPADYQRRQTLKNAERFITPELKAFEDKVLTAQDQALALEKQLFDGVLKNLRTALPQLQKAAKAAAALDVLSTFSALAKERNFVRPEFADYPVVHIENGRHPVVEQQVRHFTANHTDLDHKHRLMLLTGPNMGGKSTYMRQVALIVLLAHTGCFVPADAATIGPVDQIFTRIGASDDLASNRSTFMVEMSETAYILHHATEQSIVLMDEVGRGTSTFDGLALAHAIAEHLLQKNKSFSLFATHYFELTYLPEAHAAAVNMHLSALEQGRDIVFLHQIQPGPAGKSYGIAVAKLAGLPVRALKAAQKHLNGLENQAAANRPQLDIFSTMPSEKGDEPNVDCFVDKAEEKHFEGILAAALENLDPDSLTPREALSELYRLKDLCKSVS
In words: pull-down; protein affinity chromatography: 250 μg V.NgoAXIII, V.NgoAXIV or MutLNgo coupled to Affi-Gel 10; 250 μg His-tagged MutLNgo or MutS applied in 25 mM Tris pH 7.5, 50 mM NaCl with 2 mM ATP and 5 mM MgCl2; washed with the same buffer, eluted with 250 mM NaCl; fractions blotted with an anti-His-Tag antibody. Conditions: both partners purified.

Series [5] deals with T2, MutL protein of N. gonorrhoeae FA1090, two-hybrid fusion (mutLNgo gene in pC434, plasmid pAK26) (N. gonorrhoeae FA1090, UniProt Q5F8M6 1-658).
T2 construct: MutL of Neisseria gonorrhoeae FA1090; mutLNgo gene (1977 bp) amplified from chromosomal DNA and cloned into the SalI-BamHI sites of pC434; also called gonococcal MutL protein; source: bacterial two-hybrid fusion, expressed in E. coli R721; not shown: N-terminal domain of the repressor of phage 434 (from the vector pC434), N-terminal, kept
T2 sequence (looked up): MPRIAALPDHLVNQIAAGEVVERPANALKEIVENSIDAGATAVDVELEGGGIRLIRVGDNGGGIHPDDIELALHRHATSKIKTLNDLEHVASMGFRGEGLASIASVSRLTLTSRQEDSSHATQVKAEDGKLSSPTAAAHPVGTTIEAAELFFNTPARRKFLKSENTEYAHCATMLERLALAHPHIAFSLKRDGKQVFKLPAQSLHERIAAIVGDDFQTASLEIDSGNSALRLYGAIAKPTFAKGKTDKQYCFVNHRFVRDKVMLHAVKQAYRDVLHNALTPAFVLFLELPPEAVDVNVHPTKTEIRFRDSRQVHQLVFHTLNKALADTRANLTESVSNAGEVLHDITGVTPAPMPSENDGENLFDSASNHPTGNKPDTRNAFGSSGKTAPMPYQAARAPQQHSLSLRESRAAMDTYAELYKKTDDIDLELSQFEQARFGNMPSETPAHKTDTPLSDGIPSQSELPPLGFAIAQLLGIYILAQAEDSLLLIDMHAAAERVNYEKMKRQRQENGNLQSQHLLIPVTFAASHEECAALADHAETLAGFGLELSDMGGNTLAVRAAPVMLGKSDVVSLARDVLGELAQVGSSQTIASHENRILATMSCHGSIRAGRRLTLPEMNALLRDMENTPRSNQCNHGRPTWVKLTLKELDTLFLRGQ
In words: two-hybrid; bacterial two-hybrid system (Di Lallo et al.) in E. coli R721 with lacZ as reporter: fusions to the N-terminal domains of the phage P22 and 434 repressors; an interaction represses β-galactosidase; LB with 0.1 mM IPTG, 37 °C; read-out is the ratio of Miller Units to the plasmid-less strain, a ratio below 0.5 counts as interaction. Conditions: partners not purified.

In the case of “T:G mismatch substrate used with MutS (M.NgoA302P-sub or M.NgoA1175P-sub, not specified)”, the binding signal in series [1] was 90 % bound.

B1: MutL protein of N. gonorrhoeae FA1090, two-hybrid fusion (mutLNgo gene in pC434, plasmid pAK26) (natural protein)
chain: T2 sequence (looked up)
As to B1, the ratio of Miller Units (β-galactosidase activity) to the plasmid-less strain in series [2] is 0.18; in series [3], 0.23.

B2: MutL protein of N. gonorrhoeae FA1090, His-tagged, purified (plasmid pAK20) (natural protein, UniProt Q5F8M6 1-658, looked up)
chain: T2 sequence (looked up)
notes: MutL of Neisseria gonorrhoeae FA1090; mutLNgo gene (1977 bp) amplified from chromosomal DNA with primers MutLfor/MutLNgoR and cloned into the NheI-HindIII sites of pET28a(+); The His-Tag at the amino terminus is encoded by the vector; also called MutLNgo; gonococcal MutL protein; source: E. coli BL21(DE3)pLys (pAK20), autoinduction, purified (Ni-NTA Agarose); not shown: His-Tag, N-terminal, kept
With B2, the binding result in series [4] is reported as “binds”.

B3: MutS protein of N. gonorrhoeae FA1090, two-hybrid fusion used with the MutLNgo fusion (plasmid pAK27) (natural protein, UniProt Q5F5J4 1-864, looked up)
chain: T1 sequence (looked up)
notes: MutS of Neisseria gonorrhoeae FA1090; mutS gene (2595 bp) amplified from chromosomal DNA and cloned into the SalI-BamHI sites of pC434 and pC22; That pAK27 is the pC22 derivative is inferred: it was paired with the pC434-borne mutLNgo gene; also called gonococcal MutS protein; source: bacterial two-hybrid fusion, expressed in E. coli R721; not shown: N-terminal domain of the repressor of phage …
On to B3, for which, in series [5], the “ratio of Miller Units (β-galactosidase activity) to the plasmid-less strain” value came to 0.39 ± 0.01.
